Measurements from publication PMC2536759 (Cancer research, 2008).
Read-outs that look alike come from different tables or passages of the source.

Columns and labels:
His-caspase-8(184-384) [1] = biological target: T1, His-caspase-8(184-384) (UniProt Q14790 184-384); assay: pull-down
His-caspase-8(184-384) [2] = biological target: T1, His-caspase-8(184-384); assay: pull-down; remark: listed apart in the source

T1 sequence (Q14790 184-384): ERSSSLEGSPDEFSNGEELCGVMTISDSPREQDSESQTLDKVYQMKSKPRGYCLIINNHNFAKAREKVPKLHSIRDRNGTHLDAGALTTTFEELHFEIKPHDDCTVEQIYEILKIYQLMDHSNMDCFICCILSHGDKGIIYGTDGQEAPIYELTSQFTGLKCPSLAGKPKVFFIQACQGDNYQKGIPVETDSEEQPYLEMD

Row | binding result (His-caspase-8(184-384) [1]) | binding result (His-caspase-8(184-384) [2]) | Binder
1 | binds | – | CQCRRKNYGQLDIFPARDTY [synthetic MUC1-CD(1-20) peptide]
2 | – | binds | CQCRRKNYGQLDIFPARDTY (domain or fragment, human) [GST-MUC1-CD(1-20)]
